Among the data in article PMC12615485, “New dengue virus inhibitors targeting NS3-NS5 interaction identified by in silico screening” (Frontiers in Microbiology, 2025) are IC50 values, retold here.

The test has as its target 6His-NS5 RdRp(270-900) of DENV-2 NGC strain (DENV-2 NGC strain). As to the kind of experiment: ELISA. To be noted: both partners purified.

In the case of EGEWKEGEEVQVLAL [NS3(86-100) peptide of DENV-2], the IC50 is over 200 µM.

By IC50 is commonly meant the concentration that gives 50% inhibition. Read a low IC50 as higher potency.
